The text below walks through data of IntAct's records for PubMed 18034774.

Sequences and labels used below:
B1: Ras-related protein Rab-5A (Homo sapiens), P20339 (parent)
chain: MASRGATRPNGPNTGNKICQFKLVLLGESAVGKSSLVLRFVKGQFHEFQESTIGAAFLTQTVCLDDTTVKFEIWDTAGQERYHSLAPMYYRGAQAAIVVYDITNEESFARAKNWVKELQRQASPNIVIALSGNKADLANKRAVDFQEAQSYADDNSLLFMETSAKTSMNVNEIFMAIAKKLPKNEPQNPGANSARGRGVDLTEPTQPTRNQCCSN
partner: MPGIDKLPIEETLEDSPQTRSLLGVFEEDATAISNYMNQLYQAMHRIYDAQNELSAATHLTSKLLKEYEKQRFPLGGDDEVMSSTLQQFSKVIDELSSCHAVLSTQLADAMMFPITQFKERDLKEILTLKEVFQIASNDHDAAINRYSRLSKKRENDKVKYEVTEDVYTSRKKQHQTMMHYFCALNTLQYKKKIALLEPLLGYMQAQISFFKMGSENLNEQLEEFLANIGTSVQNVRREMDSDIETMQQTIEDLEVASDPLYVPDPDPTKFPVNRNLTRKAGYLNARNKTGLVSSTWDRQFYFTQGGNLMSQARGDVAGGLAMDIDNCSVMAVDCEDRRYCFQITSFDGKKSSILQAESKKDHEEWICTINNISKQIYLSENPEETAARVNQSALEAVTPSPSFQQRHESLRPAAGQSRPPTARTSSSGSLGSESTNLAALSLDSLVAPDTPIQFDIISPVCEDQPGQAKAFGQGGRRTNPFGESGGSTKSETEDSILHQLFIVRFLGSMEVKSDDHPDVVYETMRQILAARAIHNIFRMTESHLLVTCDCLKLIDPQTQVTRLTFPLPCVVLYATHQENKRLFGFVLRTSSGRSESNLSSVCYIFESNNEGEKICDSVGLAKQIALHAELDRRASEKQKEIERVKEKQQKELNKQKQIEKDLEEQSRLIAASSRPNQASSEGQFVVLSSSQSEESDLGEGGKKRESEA

The variants in this assay derive from B1. As to conditions: with dp13a_human APPL1, Q9UKG1.
With MASRGATRPNGPNTGNKICQFKLVLLGESAVGKNSLVLRFVKGQFHEFQESTIGAAFLTQTVCLDDTTVKFEIWDTAGQERYHSLAPMYYRGAQAAIVVYDITNEESFARAKNWVKELQRQASPNIVIALSGNKADLANKRAVDFQEAQSYADDNSLLFMETSAKTSMNVNEIFMAIAKKLPKNEPQNPGANSARGRGVDLTEPTQPTRNQCCSN [S34N], the “effect of a mutation on the interaction” value is on record as “disrupting interaction strength”.
